Assay results from patent US20080096222A1 (BRIGHAM AND WOMEN S HOSPITAL, published 2008).

Key:
[1] = target: T1, H2B-GST (residues 1-35 of human H2B fused to GST) (human, UniProt P62807 2-36); experiment: GST pulldown from lysates of myc-haspin-transfected cells
T1 construct: range 1-35; not shown: glutathione S-transferase (GST) encoded by vector pETGEX-CT
Description: (§1) For immunoprecipitation, cells are suspended in 50 mM Tris/0.5 M NaCl/1% Triton X-100/1% DOC/0.1% SDS/2 mM EDTA, pH 7.4 (buffer L) with 1 μg/ml pepstatin/1 μg/ml leupeptin/1 μg/ml antipain/1 μg/ml chymostatin/1 mM phenylmethylsulphyl fluoride/1 mM NaF/0.1 μM okadaic acid and lysed by shearing 15 times through a 21 gauge needle. Insoluble material is removed by centrifugation for 15 min at 13,000 rpm and the lysates precleared with protein G-Sepharose and concentrations equalized based on Bradford assay (Bio-Rad). Lysates are incubated with antibodies for 1.5 h at 4° C. before addition of protein G-Sepharose for a further 1.5 h. Beads are washed 4 times with buffer L and thrice with Hepes-buffered saline, pH 7.4 (HBS). For GST pulldown assays, cells are lysed in 20 mM Tris/1% Triton X-100/1 mM EDTA/1 mM DTT, pH 7.4 (buffer T) containing 0.3 M NaCl and protease and phosphatase inhibitors as above, clarified, and precleared with glutathione-Sepharose. […]
(§2) To examine the interaction of haspin with H3, we utilized the H3-GST fusion proteins in “pulldown” assays from lysates of myc-haspin-transfected cells. In the conditions of the assay, myc-haspin bound to H3-GST, whereas the binding of myc-haspin to GST alone, H2B-GST and H4-GST was not detected.

GST alone = target: T2, GST alone (UniProt P08515 1-218 = GST); experiment: as above
T2 construct: Control protein
Description: as §1, §2

T2 sequence (P08515 whole entry): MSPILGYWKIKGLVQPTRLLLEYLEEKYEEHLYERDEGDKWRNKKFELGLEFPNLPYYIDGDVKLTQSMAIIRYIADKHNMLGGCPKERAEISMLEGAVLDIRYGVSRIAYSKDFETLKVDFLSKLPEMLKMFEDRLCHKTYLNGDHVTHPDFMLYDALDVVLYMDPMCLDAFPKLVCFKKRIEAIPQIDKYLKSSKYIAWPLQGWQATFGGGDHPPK
T1 sequence (P62807 2-36): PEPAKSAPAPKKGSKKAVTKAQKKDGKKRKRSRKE

binding result [1]: no binding
binding result (GST alone): no binding
B1: myc-tagged human haspin (enzyme)
chain: AASLPGPGSRLFRTYGAADGRRQRRPGREAAQWFPPQDRRRFFNSSGSSDASIGDPSQSDDPDDPDDPDFPGSPVRRRRRCPGGRVPKDRPSLTVTPKRWKLRARPSLTVTPRRLGLRARPPQKCSTPCGPLRLPPFPSRDSGRLSPDLSVCGQPRDGDELGISASLFSSLASPCPGSPTPRDSVISIGTSACLVAASAVPSDLHLPEVSLDRASLPCSQEEATGGAKDTRMVHQTRASLRSVLFGLMNSGTPEDSEFRADGKNMRESCCKRKLVVGNGPEGPGLSSTGKRRATGQDSCQERGLQEAVRREHQEASVPKGRIVPRGTDRLERTRSSRKSKHQEATETSLLHSHRFKKGQKLGKDSFPTQDLTPLQNACFWTKTRASFSFHKKKIVTDVSEVCSIYTTATSLSGSLLSECSNRPVMNRTSGAPSSWHSSSMYLLSPLNTLSISNKKASDAEKVYGECSQKGPVPFSHCLPTEKLQRCEKIGEGVFGEVFQTIADHTPVAIKIIAIEGPDLVNGSHQKTFEEILPEIIISKELSLLSGEVCNRTEGFIGLNSVHCVQGSYPPLLLKAWDHYNSTKGSANDRPDFFKDDQLFIVLEFEFGGIDLEQMRTKLSSLATAKSILHQLTASLAVAEASLRFEHRDLHWGNVLLKKTSLKKLHYTLNGKSSTIPSCGLQVSIIDYTLSRLERDGIVVFCDVSMDEDLFTGDGDYQFDIYRLMKKENNNRWGEYHPYSNVLWLHYLTDKMLKQMTFKTKCNTPAMKQIKRKIQEFHRTMLNFSSATDLLCQHSLFK
notes: Expressed in transfected HEK293 or HeLa cells and used from cell lysates; also called myc-haspin; full-length haspin; not shown: myc tag encoded by the pcDNA3-derived plasmid pCANmyc1
